According to article PMC2914788, “Phage-Derived Fully Human Monoclonal Antibody Fragments to Human Vascular Endothelial Growth Factor-C Block Its Interaction with VEGF Receptor-2 and 3” (PLoS ONE, 2010):

Target: T1, VC2.2.2 VH-myc (human)
T1 construct: as the VH of m13 (VC2.2.2), from Glu1 to Ser113; Chothia numbering; also called anti-VEGF-C VC2.2.2 VH; single VH-domain of VC2.2.2; source: E. coli (pHEN1), IPTG-induced, bacterial supernatant (ELISA); protein-A purified (SEC); not shown: myc, C-terminal, kept
Test: ELISA; bacterial supernatant of IPTG-induced cultures expressing VH-myc on ΔNΔC-VEGF-C or alpha-2-macroglobulin; detection with anti-myc and anti-mouse HRP or with protein-A-HRP
Conditions: one partner purified

binding result: binds
B1: ΔNΔC-VEGF-C (variant not stated for the experiment) (ligand, human, UniProt P49767 112-227, looked up)
chain: AHYNTEILKSIDNEWRKTQCMPREVCIDVGKEFGVATNTFFKPPCVSVYRCGGCCNSEGLQCMNTSTSYLSKTLFEITVPLSQGPKPVTISFANHTSCRCMSKLDVYRQVHSIIRR
notes: fully processed ΔNΔC form of human VEGF-C; also called fully processed human VEGF-C
